Measured values: PMC5018249

Tests used:
[1] = molecular target: BG505 SOSIP-GT3-PADRE (HIV-1 strain BG505); assay: SEC-MALS; purified immunogen in solution; conditions not given
[2] = molecular target: BG505 SOSIP.D664 (HIV-1 strain BG505); assay: SEC-MALS + other: negative-stain electron microscopy; in-house purified BG505 SOSIP trimers, thawed and analysed

Substance	stoichiometry N [1]	stoichiometry N [2]
BG505 SOSIP-GT3-PADRE	3	–
BG505 SOSIP.D664 (domain or fragment)	–	3
